Target: T1, exoplasmic domain of human CD40 (GST-CD40) (Homo sapiens, UniProt P25942)
T1 construct: The cDNA for the exoplasmic domain of CD40 (amino acids 20-212); made in house; host or cells: E. coli, pGEX-2T
Assay: GST-CD40 binding and competition assay with recombinant Hsp70 and its domains
Details: ADP, 5-fold molar excess of competitor
Procedure: For binding assays with recombinant Hsp70 and its domains, 3 μM His6-Hsp70 or its His6-tagged domains were incubated with 2 mM ATP, 2 mM ADP or 2 mM ADP and 28 μM peptide C in 50 μl binding buffer (10 mM MOPS/KOH, pH 7.2, 150 mM KCl and 3 mM MgCl2) for 30 min at 37° C. In competition experiments binding was probed with either a 10-fold excess of Hsp70, the two domains, or DnaK, or with a 5-fold excess of Hip or Bag 1 for 10 min at 0° C. To this end, Hsp70, N70, C70 and DnaK were preincubated with ADP, ATP and peptide C as described above. […] 10 μl of the eluates were subjected to SDS-PAGE and analyzed by immunoblotting using a Penta-His-antibody (Quiagen). Blot signals were quantified by Quantity One (Biorad).
Details for FIG. 3. […] Thereafter samples were affinity purified on glutathione-Sepharose as outlined in Experimental Procedures, subjected to SDS-PAGE and analyzed by immunoblotting with antibodies directed against Hsc70 and Hsp70 (upper lanes), and against Hsp90 (lower lanes). […] After affinity purification samples were analyzed by immunoblotting as described in A, using antibodies directed against the His6-tag. […] Protein bound to Hsp70 was analyzed by affinity purification on Ni-NTA-agarose and immunoblotting with antibodies directed against CD40. […]
Details for FIG. 5. […] The lower panel is a quantitation of the data. […]

T1 sequence (P25942 20-212): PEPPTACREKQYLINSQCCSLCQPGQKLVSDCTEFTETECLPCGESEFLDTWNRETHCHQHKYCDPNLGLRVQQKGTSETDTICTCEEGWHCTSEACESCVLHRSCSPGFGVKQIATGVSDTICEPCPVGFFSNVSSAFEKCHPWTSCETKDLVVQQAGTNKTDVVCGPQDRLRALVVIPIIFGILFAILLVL

B1: Hip: Hsp70 cochaperone that stabilizes the ADP-state of Hsp70, recombinant His-tagged (protein, UniProt P50502 1-369, looked up)
Hsc70-interacting protein: MDPRKVNELRAFVKMCKQDPSVLHTEEMRFLREWVESMGGKVPPATQKAKSEENTKEEKPDSKKVEEDLKADEPSSEESDLEIDKEGVIEPDTDAPQEMGDENAEITEEMMDQANDKKVAAIEALNDGELQKAIDLFTDAIKLNPRLAILYAKRASVFVKLQKPNAAIRDCDRAIEINPDSAQPYKWRGKAHRLLGHWEEAAHDLALACKLDYDEDASAMLKEVQPRAQKIAEHRRKYERKREEREIKERIERVKKAREEHERAQREEEARRQSGAQYGSFPGGFPGGMPGNFPGGMPGMGGGMPGMAGMPGLNEILSDPEVLAAMQDPEVMVAFQDVAQNPANMSKYQSNPKVMNLISKLSAKFGGQA
modifications: His tag
notes: Hsp70 cochaperone that stabilizes the ADP-state of Hsp70, recombinant His-tagged
competition for the binding of full-length Hsp70 to CD40: acted as an effective competitor of the interaction
